Reference: the supplement of paper PMC10126150
± gives the standard deviation of the averaged measurements.

Test system: ATP
Test: switch fluorescence ratio, 500 uM ATP over buffer (Cy3 cluster intensity, sum of 5 cycles each) (fold (ratio)); higher = stronger signal-on switching upon ATP binding; sequences stand for … in TCGTCGGCAGCGTCAGATGTGTATAAGAGACAGTTTTTTTTTTTTTTTTTTTTTTTTT…TC
Settings: aptamer strand: ATP DNA aptamer (quencher-CACCTGGGGGAGTATTGCGGAGGAAGG + anchor), 100 nM annealed; ATP concentration: 500 uM
Outline: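 Exposure to 500 uM ATP lasted 15 min at 22 °C before imaging, and a selection-buffer image was taken beforehand, for Cy3-labelled switching-strand clusters on a modified Illumina MiSeq flow-cell annealed to 100 nM quencher-labelled ATP aptamer. Five buffer/ATP cycles were run with NaOH stripping and re-annealing between them. The fluorescence ratio per cluster is summed target-cycle over summed buffer-cycle Cy3 intensity, averaged per switch-domain sequence. Clusters outside 100-1000 RFU were excluded.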

| Sequence | switch fluorescence ratio |
| --- | --- |
| CAGCTTAGGG | 1.01 ± 0.036 |
| CAGCTTGGAT | 0.977 ± 0.013 |
| CAGGAAAACG | 1.03 ± 0.018 |
| CAGGAAATGG | 0.999 ± 0.017 |
| CAGGAACTTT | 0.995 ± 0.0012 |
| CAGGAAGCGG | 1.025 ± 0.0027 |
| CAGGACCCGG | 1.071 ± 0.0084 |
| CAGGAGGAAT | 1.242 ± 0.0098 |
| CAGGAGTGAG | 1.0068 ± 0.00044 |
| CAGGATTGGG | 0.973 ± 0.043 |
| CAGGCGCAGG | 1.06 ± 0.051 |
| CAGGCGCTCT | 1.04 ± 0.054 |
| CAGGCGTCGT | 1.035 ± 0.0023 |
| CAGGCTAAAG | 0.989 ± 0.032 |
| CAGGCTAGGC | 1.02 ± 0.056 |
| CAGGCTGGTC | 0.992 ± 0.053 |
| CAGGGAGGAC | 1.01 ± 0.013 |
| CAGGGATTAG | 1.01 ± 0.044 |
| CAGGGATTGA | 0.998 ± 0.0049 |
| CAGGGATTTA | 0.978 ± 0.024 |
| CAGGGCCCTG | 0.995 ± 0.056 |
| CAGGGGAAAC | 1.02 ± 0.077 |
| CAGGGGCGAC | 1.02 ± 0.049 |
| CAGGGGCTTA | 1 ± 0.038 |
| CAGGGGCTTT | 1.04 ± 0.0067 |

| Sequence | switch fluorescence ratio |
| --- | --- |
| CAGGGGGATA | 1.3 ± 0.43 |
| CAGGGGGATG | 1.01 ± 0.032 |
| CAGGGGGCCG | 1.01 ± 0.078 |
| CAGGGGGCGA | 1.06 ± 0.07 |
| CAGGGGGCTT | 1.03 ± 0.054 |
| CAGGGGGGCG | 1.04 ± 0.088 |
| CAGGGGTAAA | 1.01 ± 0.019 |
| CAGGGGTAGG | 1.09 ± 0.044 |
| CAGGGGTCTG | 0.997 ± 0.038 |
| CAGGGGTGGT | 1.01 ± 0.039 |
| CAGGGGTTTG | 1 ± 0.051 |
| CAGGGTAGTG | 1.01 ± 0.045 |
| CAGGGTGCTA | 1 ± 0.075 |
| CAGGGTGGTT | 1.03 ± 0.028 |
| CAGGGTTGGC | 1.03 ± 0.012 |
| CAGGTAGGCG | 0.984 ± 0.016 |
| CAGGTAGGGG | 0.9507 ± 0.0065 |
| CAGGTAGTGT | 1.02 ± 0.024 |
| CAGGTAGTTG | 1.004 ± 0.0032 |
| CAGGTATAGG | 0.9864 ± 0.0054 |
| CAGGTCAGGG | 0.998 ± 0.014 |
| CAGGTCAGGT | 1.01 ± 0.045 |
| CAGGTCGCGG | 1.005 ± 0.006 |
| CAGGTCTTAT | 1.01 ± 0.028 |
| CAGGTCTTGC | 1 ± 0.015 |

| Sequence | switch fluorescence ratio |
| --- | --- |
| CAGGTGAGAA | 1.16 ± 0.026 |
| CAGGTGAGTT | 1.34 ± 0.32 |
| CAGGTGATAC | 2.42 ± 0.29 |
| CAGGTGGGGG | 1.01 ± 0.033 |
| CAGGTGGTGT | 1.11 ± 0.066 |
| CAGGTTAATT | 1.02 ± 0.044 |
| CAGGTTCACG | 1.02 ± 0.032 |
| CAGGTTGAAC | 0.9866 ± 0.0021 |
| CAGGTTGTGT | 0.99 ± 0.031 |
| CAGGTTTCTA | 1 ± 0.043 |
| CAGGTTTGG | 0.982 ± 0.014 |
| CAGTAAAAGG | 1.01 ± 0.028 |
| CAGTAAAGGA | 1.02 ± 0.053 |
| CAGTAATTGA | 1 ± 0.026 |
| CAGTACGCGT | 1.04 ± 0.017 |
| CAGTAGAAAG | 1.01 ± 0.0081 |
| CAGTAGCGGT | 1.97 ± 0.35 |
| CAGTAGGGCA | 0.982 ± 0.041 |
| CAGTATTTTG | 0.9952 ± 0.0031 |
| CAGTCCGGGC | 0.991 ± 0.028 |
| CAGTCGACTG | 1.01 ± 0.019 |
| CAGTCGCCAG | 1.02 ± 0.0024 |
| CAGTGAATGT | 0.976 ± 0.039 |
| CAGTGATGAG | 1.03 ± 0.012 |
| CAGTGATTAT | 1.01 ± 0.018 |

| Sequence | switch fluorescence ratio |
| --- | --- |
| CAGTGCCTGT | 1.01 ± 0.034 |
| CAGTGCGCTA | 1.15 ± 0.02 |
| CAGTGGCGTC | 1.05 ± 0.02 |
| CAGTGGGACT | 0.974 ± 0.024 |
| CAGTGGGCGG | 1.06 ± 0.07 |
| CAGTGGGCGT | 1.04 ± 0.026 |
| CAGTGGGTGG | 0.982 ± 0.027 |
| CAGTGGGTTT | 0.97 ± 0.032 |
| CAGTGGTACG | 1.02 ± 0.065 |
| CAGTGGTTGG | 1.01 ± 0.013 |
| CAGTGTGAGC | 1.01 ± 0.039 |
| CAGTTAATTG | 1.03 ± 0.013 |
| CAGTTACGGT | 1.003 ± 0.0068 |
| CAGTTAGATA | 1.02 ± 0.031 |
| CAGTTAGCAT | 1.101 ± 0.0097 |
| CAGTTATGTT | 0.993 ± 0.036 |
| CAGTTCATTA | 0.9976 ± 0.0031 |
| CAGTTCGGCC | 1.01 ± 0.024 |
| CAGTTGCCAG | 0.953 ± 0.019 |
| CAGTTGGACG | 1.04 ± 0.11 |
| CAGTTGTGGG | 0.9802 ± 0.0066 |
| CAGTTGTTGC | 0.984 ± 0.023 |
| CAGTTTGATG | 1.003 ± 0.0083 |
| CAGTTTGGGG | 0.982 ± 0.019 |
| CAGTTTGTTT | 0.9881 ± 0.0031 |

| Sequence | switch fluorescence ratio |
| --- | --- |
| CAGTTTTTAT | 1.01 ± 0.026 |
| CAGTTTTTTA | 0.983 ± 0.016 |
| CATAAGATGT | 1 ± 0.021 |
| CATAAGGTTG | 0.991 ± 0.017 |
| CATAATTAGT | 0.994 ± 0.018 |
| CATAATTGCT | 1.01 ± 0.0059 |
| CATAATTTTA | 1.007 ± 0.01 |
| CATACGGGGT | 1.01 ± 0.032 |
| CATAGCGTTA | 1.03 ± 0.011 |
| CATAGGAAGG | 0.987 ± 0.013 |
| CATAGGGGGG | 0.988 ± 0.015 |
| CATAGGGTGA | 1.01 ± 0.026 |
| CATAGGTAGT | 0.981 ± 0.016 |
| CATAGGTTTT | 1.03 ± 0.066 |
| CATAGTAGAA | 0.978 ± 0.034 |
| CATAGTATGG | 0.9706 ± 0.0029 |
| CATAGTGCTT | 0.9715 ± 0.0043 |
| CATATAGCAC | 1.18 ± 0.019 |
| CATATAGGGT | 0.976 ± 0.038 |
| CATATAGTTC | 0.984 ± 0.03 |
| CATATGACGG | 0.986 ± 0.038 |
| CATATGGTTG | 0.99 ± 0.018 |
| CATATGTAGA | 0.997 ± 0.023 |
| CATCAGGCGG | 1.02 ± 0.015 |
| CATCAGGTTT | 0.991 ± 0.0015 |

| Sequence | switch fluorescence ratio |
| --- | --- |
| CATCGAATGC | 1.23 ± 0.12 |
| CATCGCATCT | 1.79 ± 0.056 |
| CATCGCGGTT | 1.07 ± 0.022 |
| CATCGGGACG | 1.04 ± 0.053 |
| CATCGGGGGT | 1.29 ± 0.67 |
| CATCGGTAGA | 1.02 ± 0.017 |
| CATCTATCCG | 0.963 ± 0.012 |
| CATCTCTTGC | 1.07 ± 0.036 |
| CATCTGGGGG | 1.04 ± 0.054 |
| CATCTGTTGT | 0.9856 ± 0.0092 |
| CATGAAAAAT | 1 ± 0.011 |
| CATGAAGATG | 0.98 ± 0.012 |
| CATGAATAG | 0.994 ± 0.011 |
| CATGAATATG | 1.01 ± 0.03 |
| CATGAATATT | 0.99 ± 0.037 |
| CATGACCTTT | 1.04 ± 0.016 |
| CATGAGAAGA | 0.999 ± 0.029 |
| CATGAGACCG | 1.03 ± 0.016 |
| CATGAGGAGT | 1.01 ± 0.0022 |
| CATGATGAGC | 0.9668 ± 0.0079 |
| CATGATTATG | 0.972 ± 0.012 |
| CATGATTTGG | 0.982 ± 0.028 |
| CATGCAAATA | 1.07 ± 0.034 |
| CATGCATTTT | 1.09 ± 0.079 |
| CATGCGAATA | 1.1 ± 0.033 |

| Sequence | switch fluorescence ratio |
| --- | --- |
| CATGCGCGGA | 1.147 ± 0.0013 |
| CATGCGCTTC | 2.39 ± 0.12 |
| CATGCTGGGT | 1.0358 ± 0.001 |
| CATGCTTGGG | 0.999 ± 0.012 |
| CATGCTTTTG | 1.013 ± 0.0021 |
| CATGGAACCT | 1.92 ± 0.11 |
| CATGGATAGC | 0.963 ± 0.012 |
| CATGGATGGC | 1.06 ± 0.03 |
| CATGGGCTGG | 0.9965 ± 0.001 |
| CATGGGGGCT | 0.964 ± 0.024 |
| CATGGGGGTT | 0.991 ± 0.025 |
| CATGGGGTGC | 1.04 ± 0.024 |
| CATGGTATGT | 1.01 ± 0.038 |
| CATGGTGAGC | 0.956 ± 0.041 |
| CATGTAAGGG | 1.003 ± 0.0053 |
| CATGTACGTG | 1.0359 ± 9.4e-05 |
| CATGTAGAGG | 0.976 ± 0.033 |
| CATGTATGTT | 1.01 ± 0.012 |
| CATGTATTGA | 0.964 ± 0.024 |
| CATGTCTCTC | 1.02 ± 0.032 |
| CATGTTACGG | 1.055 ± 0.0065 |
| CATGTTGTAT | 0.98166 ± 0.00075 |
| CATTAAGCTG | 1 ± 0.12 |
| CATTAATTGT | 1.025 ± 0.0034 |
| CATTACAGGG | 1.01 ± 0.023 |

| Sequence | switch fluorescence ratio |
| --- | --- |
| CATTACCGAG | 1.049 ± 0.0037 |
| CATTAGAATC | 0.997 ± 0.028 |
| CATTAGGTCT | 0.981 ± 0.038 |
| CATTATAGGC | 1.004 ± 0.002 |
| CATTATCATT | 0.97 ± 0.018 |
| CATTATTATT | 0.9975 ± 0.0058 |
| CATTCCGTTC | 1.42 ± 0.017 |
| CATTCGAATA | 1.08 ± 0.037 |
| CATTCGTCGA | 1.2 ± 0.04 |
| CATTCGTTGA | 1.05 ± 0.08 |
| CATTCGTTTG | 0.96 ± 0.0097 |
| CATTCTGATC | 1 ± 0.056 |
| CATTGAATGG | 1 ± 0.015 |
| CATTGATGAA | 0.988 ± 0.06 |
| CATTGTAAGT | 1 ± 0.025 |
| CATTTAGACG | 1.01 ± 0.11 |
| CATTTATTTG | 1.01 ± 0.014 |
| CATTTATTTT | 1.01 ± 0.044 |
| CATTTCGGCG | 0.999 ± 0.044 |
| CATTTCGTAA | 1.18 ± 0.02 |
| CATTTCTTG | 0.985 ± 0.029 |
| CATTTGAGCC | 0.973 ± 0.013 |
| CATTTGGTCC | 1.008 ± 0.0012 |
| CATTTGTGGC | 0.961 ± 0.058 |
| CATTTGTTTT | 1.02 ± 0.021 |
